Literature values as cited in publication PMC8349851.

Target: PI3K p85 regulatory subunit SH3 (Homo sapiens) (UniProt P27986)
Chain of UniProt P27986 (P27986 1-82): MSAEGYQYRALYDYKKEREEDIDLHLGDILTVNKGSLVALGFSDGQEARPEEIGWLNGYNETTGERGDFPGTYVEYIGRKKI

In the case of obscurin PH (from UniProt Q5VST9), the Kd is given as 50 nM.
